B1: 中和抗体YB13-208 (antibody, V domains shown)
V domain 1: QITLKESGPTLVKPTQTLTLTCTFSGLSLSTSGVSVGWIRQPPGKAPEWLALIYWDDDKRYSPSLTSRLSITKDTSKNQVVLTMTNMDPVDTATYYCAHPRYYGDSSGYYWIWGQGTMVTVSS
V domain 2: SYELTQPPSVSVSPGQTARITCSGDALPKQYAYWYQQKPGQAPVVVMYKTSERPSGIPERFSGSSSGTTVTLTISGVQAEDEADYYCQSADSSGFYVFGTGTQVTVL
B2: 中和抗体YB9-258 (antibody, V domains shown)
VH: EVQLVESGGGLIQPGGSLRLSCAASGLTVSSNYMHWVRQAPGKGLEWVSVLYAGGSAFYADSVKGRFTISRNNSKNTLYLQMNSLRAEDTAIYYCARGLGDYLDSWGQGTLVTVSS
VL: DIQMTQSPSSVSASVGDRVTITCRASQGIGSWLAWYQQKPGKAPQLLIYAASTLQSGVPPRFSGSGSGTDFTLTITSLQPEDFASYYCQQANSVLALTFGGGTKVEIK

Tests used:
[1] = target: T1, 新冠病毒SARS-CoV-2变异毒株Omicron(B.1.1.529)S1抗原 (SARS-CoV-2, UniProt P0DTC2 16-685); experiment: SPR (Biacore T200), S1 antigen coupled to CM5 chip, antibody as analyte
T1 construct: domain: S1; also called Omicron S1; Omicron(B.1.1.529)的S1蛋白

[2] = target: T2, 新冠病毒SARS-CoV-2变异毒株Delta(B.1.617.2)S1抗原 (SARS-CoV-2, UniProt P0DTC2 16-685); experiment: as above
T2 construct: domain: S1; also called Delta S1

Binder	Kd [1] [nM]	Kd [2] [nM]
B1	3.11	0.639
B2	0.00417	0.833

Source: CN114573691A (EIGHT HOSPITALS IN AFFILIATED CITY OF GUANGZHOU MEDICAL; …, dated 2022)
